The target of assay [1] is RING1B C-terminal domain (C-RING1B) (Homo sapiens) (UniProt Q99496). To be noted: cited from earlier work.
Assay [2] concerns the target C-terminal region of RING1B (C-RING1B), residues 222–336, with C-terminal hexahistidine tag (human) (UniProt Q99496). The experiment in a line: SPR.
Assay [3] shares this target. The experiment in a line: native gel or EMSA. (A gel shift assay detects complexes by their altered migration in electrophoresis.)
Assay [4] concerns the target cbx7 cbox domain with C-terminal hexahistidine tag (human). The experiment in a line: AUC.

Take “RING1B C-terminal domain (C-RING1B) (from UniProt Q99496)”: in assay [1], the Kd was 200000 nM.
Turning to “MBP–cbx6 cbox domain fusion protein (from UniProt O95503 1-412) (domain or fragment)”, the Kd in assay [2] amounted to 180 nM.
Consider “MBP–cbx8 cbox domain fusion protein (from UniProt Q9HC52 1-389) (domain or fragment)”, for which the Kd in assay [2] came out at 180 nM.
In assay [2], “MBP–Drosophila Pc cbox domain fusion protein (from UniProt P26017 1-390) (domain or fragment)” yielded a Kd of 38 nM.
Consider “MBP–cbx7 cbox domain fusion protein (from UniProt O95931 1-251) (domain or fragment)”, for which the Kd in assay [2] was 9.2 nM.
In the case of cbx6 cbox domain (domain or fragment), the stoichiometry N in assay [3] amounted to 1.

B1: C-RING1B (residues 222–336) with C-terminal SRD sequence, coexpressed with the cbx7 cbox domain (domain or fragment)
chain: MEKTRGASEIELVFRPHPTLMEKDDSAQTRYIKTSGNATVDHLSKYLAVRLALEELRSKGESNQMNLDTASEKQYTIYIATASGQFTVLNGSFSLELVSEKYWKVNKPMELYYAPTKEHKSRD
In the case of B1, the stoichiometry N in assay [4] stood at 1.

What is called Kd is the concentration at which binding is half-saturated. As a reminder, the stoichiometry N is a count of units in the complex or per binding partner.

The values are drawn from paper PMC4442619.
